Test results published in patent US20230250154A1 (CYTONICS, published 2023).

B1: Variant A2M, bait region SEQ ID NO 132 (other)
chain: SVSGKPQYMVLVPSLLHTETTEKGCVLLSYLNETVTVSASLESVRGNRSLFTDLEAENDVLHCVAFAVPKSSSNEEVMFLTVQVKGPTQEFKKRTTVMVKNEDSLVFVQTDKSIYKPGQTVKFRVVSMDENFHPLNELIPLVYIQDPKGNRIAQWQSFQLEGGLKQFSFPLSSEPFQGSYKVVVQKKSGGRTEHPFTVEEFVLPKFEVQVTVPKIITILEEEMNVSVCGLYTYGKPVPGHVTVSICRKYSDASDCHGEDSQAFCEKFSGQLNSHGCFYQQVKTKVFQLKRKEYEMKLHTEAQIQEEGTVVELTGRQSSEITRTITKLSFVKVDSHFRQGIPFFGQVRLVDGKGVPIPNKVIFIRGNEANYYSNATTDEHGLVQFSINTTNVMGTSLTVRVNYKDRSPCYGYQWVSEEHEEAHHTAYLVFSPSKSFVHLEPMSHELPCGHTQTVQAHYILNGGTLLGLKKLSFYYLIMAKGGIVRTGTHGLLVKQEDMKGHFSISIPVKSDIAPVARLLIYAVLPTGDVIGDSAKYDVENCLANKVDLSFSPSQSLPASHAHLRVTAAPQSVCALRAVDQSVLLMKPDAELSASSVYNLLPEKDLTGFPGPLNDQDDEDCINRHNVYINGITYTPVSSTNEKDMYSFLEDMGLKAFTNSKIRKPKMCPQLEQYEMHGPEGEGEGEGIPENFFGVSELEGRGSSEDLVVQIVEEPHTKLRKYFPETWIWDLVVVNSAGVAEVGVTVPDTITEWKAGAFCLSEDAGLGISSTASLRAFQPFFVELTMPYSVIRGEAFTLKATVLNYLPKCIRVSVQLEASPAFLAVPVEKEQAPHCICANGRQTVSWAVTPKSLGNVNFTVSAEALESQELCGTEVPSVPEHGRKDTVIKPLLVEPEGLEKETTFNSLLCPSGGEVSEELSLKLPPNVVEESARASVSVLGDILGSAMQNTQNLLQMPYGCGEQNMVLFAPNIYVLDYLNETQQLTPEIKSKAIGYLNTGYQRQLNYKHYDGSYSTFGERYGRNQGNTWLTAFVLKTFAQARAYIFIDEAHITQALIWLSQRQKDNGCFRSSGSLLNNAIKGGVEDEVTLSAYITIALLEIPLTVTHPVVRNALFCLESAWKTAQEGDHGSHVYTKALLAYAFALAGNQDKRKEVLKSLNEEAVKKDNSVHWERPQKPKAPVGHFYEPQAPSAEVEMTSYVLLAYLTAQPAPTSEDLTSATNIVKWITKQQNAQGGFSSTQDTVVALHALSKYGAATFTRTGKAAQVTIQSSGTFSSKFQVDNNNRLLLQQVSLPELPGEYSMKVTGEGCVYLQTSLKYNILPEKEEFPFALGVQTLPQTCDEPKAHTSFQISLSVSYTGSRSASNMAIVDVKMVSGFIPLKPTVKMLERSNHVSRTEVSSNHVLIYLDKVSNQTLSLFFTVLQDVPVRDLKPAIVKVYDYYETDEFAIAEYNAPCSKDLGNADYKDDDDKGASHHHHHH
B2: Variant A2M, bait region SEQ ID NO 127 (other)
chain: SVSGKPQYMVLVPSLLHTETTEKGCVLLSYLNETVTVSASLESVRGNRSLFTDLEAENDVLHCVAFAVPKSSSNEEVMFLTVQVKGPTQEFKKRTTVMVKNEDSLVFVQTDKSIYKPGQTVKFRVVSMDENFHPLNELIPLVYIQDPKGNRIAQWQSFQLEGGLKQFSFPLSSEPFQGSYKVVVQKKSGGRTEHPFTVEEFVLPKFEVQVTVPKIITILEEEMNVSVCGLYTYGKPVPGHVTVSICRKYSDASDCHGEDSQAFCEKFSGQLNSHGCFYQQVKTKVFQLKRKEYEMKLHTEAQIQEEGTVVELTGRQSSEITRTITKLSFVKVDSHFRQGIPFFGQVRLVDGKGVPIPNKVIFIRGNEANYYSNATTDEHGLVQFSINTTNVMGTSLTVRVNYKDRSPCYGYQWVSEEHEEAHHTAYLVFSPSKSFVHLEPMSHELPCGHTQTVQAHYILNGGTLLGLKKLSFYYLIMAKGGIVRTGTHGLLVKQEDMKGHFSISIPVKSDIAPVARLLIYAVLPTGDVIGDSAKYDVENCLANKVDLSFSPSQSLPASHAHLRVTAAPQSVCALRAVDQSVLLMKPDAELSASSVYNLLPEKDLTGFPGPLNDQDDEDCINRHNVYINGITYTPVSSTNEKDMYSFLEDMGLKAFTNSKIRKPKMCPQLEQYEMHGPIPENFFGVSELEGRGSEAIPMSIPTEGEGEGEGVEEPHTKLRKYFPETWIWDLVVVNSAGVAEVGVTVPDTITEWKAGAFCLSEDAGLGISSTASLRAFQPFFVELTMPYSVIRGEAFTLKATVLNYLPKCIRVSVQLEASPAFLAVPVEKEQAPHCICANGRQTVSWAVTPKSLGNVNFTVSAEALESQELCGTEVPSVPEHGRKDTVIKPLLVEPEGLEKETTFNSLLCPSGGEVSEELSLKLPPNVVEESARASVSVLGDILGSAMQNTQNLLQMPYGCGEQNMVLFAPNIYVLDYLNETQQLTPEIKSKAIGYLNTGYQRQLNYKHYDGSYSTFGERYGRNQGNTWLTAFVLKTFAQARAYIFIDEAHITQALIWLSQRQKDNGCFRSSGSLLNNAIKGGVEDEVTLSAYITIALLEIPLTVTHPVVRNALFCLESAWKTAQEGDHGSHVYTKALLAYAFALAGNQDKRKEVLKSLNEEAVKKDNSVHWERPQKPKAPVGHFYEPQAPSAEVEMTSYVLLAYLTAQPAPTSEDLTSATNIVKWITKQQNAQGGFSSTQDTVVALHALSKYGAATFTRTGKAAQVTIQSSGTFSSKFQVDNNNRLLLQQVSLPELPGEYSMKVTGEGCVYLQTSLKYNILPEKEEFPFALGVQTLPQTCDEPKAHTSFQISLSVSYTGSRSASNMAIVDVKMVSGFIPLKPTVKMLERSNHVSRTEVSSNHVLIYLDKVSNQTLSLFFTVLQDVPVRDLKPAIVKVYDYYETDEFAIAEYNAPCSKDLGNADYKDDDDKGASHHHHHH

How the values were obtained:
Experiment in all cases: cell-based or functional assay
[1] = biological target: MMP8 (human, UniProt P22894 101-467, limits assumed)
Sequence of MMP8 (P22894 101-467 limits assumed): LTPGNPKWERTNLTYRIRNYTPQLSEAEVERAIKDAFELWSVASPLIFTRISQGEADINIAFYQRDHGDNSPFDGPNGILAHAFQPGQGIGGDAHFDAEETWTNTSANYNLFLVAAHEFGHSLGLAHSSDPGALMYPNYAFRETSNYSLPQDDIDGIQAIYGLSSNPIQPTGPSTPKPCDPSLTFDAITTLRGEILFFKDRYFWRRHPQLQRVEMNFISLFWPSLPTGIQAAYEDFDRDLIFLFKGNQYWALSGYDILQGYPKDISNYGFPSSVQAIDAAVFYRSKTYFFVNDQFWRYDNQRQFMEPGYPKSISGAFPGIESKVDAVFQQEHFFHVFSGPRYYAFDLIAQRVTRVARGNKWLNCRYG

[2] = biological target: MMP9 (human, UniProt P14780 107-707, limits assumed)
Sequence of MMP9 (P14780 107-707 limits assumed): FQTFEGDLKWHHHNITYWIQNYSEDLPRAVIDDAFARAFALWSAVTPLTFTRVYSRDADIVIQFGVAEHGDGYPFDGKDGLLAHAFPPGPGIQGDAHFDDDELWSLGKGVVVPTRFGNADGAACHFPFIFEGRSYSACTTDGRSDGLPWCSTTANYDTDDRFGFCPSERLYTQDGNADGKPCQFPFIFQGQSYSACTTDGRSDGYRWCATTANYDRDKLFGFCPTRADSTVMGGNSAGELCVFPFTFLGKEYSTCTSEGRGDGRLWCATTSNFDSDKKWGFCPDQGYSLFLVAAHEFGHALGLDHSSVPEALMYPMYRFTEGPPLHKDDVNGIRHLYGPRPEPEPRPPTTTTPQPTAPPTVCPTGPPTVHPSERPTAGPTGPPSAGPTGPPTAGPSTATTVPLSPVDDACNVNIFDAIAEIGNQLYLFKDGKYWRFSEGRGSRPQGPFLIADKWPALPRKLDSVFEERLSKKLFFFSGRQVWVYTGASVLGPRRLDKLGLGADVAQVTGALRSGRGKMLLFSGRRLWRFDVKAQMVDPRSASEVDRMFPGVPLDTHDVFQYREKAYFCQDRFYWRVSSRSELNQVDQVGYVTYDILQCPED

[3] = biological target: T1, MMP1 (human, UniProt P03956 100-469, limits assumed)
T1 sequence (looked up): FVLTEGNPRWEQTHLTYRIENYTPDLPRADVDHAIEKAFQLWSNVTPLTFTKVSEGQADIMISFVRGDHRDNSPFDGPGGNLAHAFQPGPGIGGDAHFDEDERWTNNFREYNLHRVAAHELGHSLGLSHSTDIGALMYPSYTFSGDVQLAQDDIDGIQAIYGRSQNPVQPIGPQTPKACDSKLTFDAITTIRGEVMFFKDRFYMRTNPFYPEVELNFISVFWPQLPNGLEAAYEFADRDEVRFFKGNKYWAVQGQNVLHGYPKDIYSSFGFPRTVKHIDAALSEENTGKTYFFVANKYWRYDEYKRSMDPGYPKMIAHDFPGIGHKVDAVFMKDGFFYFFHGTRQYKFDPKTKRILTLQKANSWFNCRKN

[4] = biological target: T2, ADAMTS4 (human, UniProt O75173 213-685, limits assumed)
T2 sequence (looked up): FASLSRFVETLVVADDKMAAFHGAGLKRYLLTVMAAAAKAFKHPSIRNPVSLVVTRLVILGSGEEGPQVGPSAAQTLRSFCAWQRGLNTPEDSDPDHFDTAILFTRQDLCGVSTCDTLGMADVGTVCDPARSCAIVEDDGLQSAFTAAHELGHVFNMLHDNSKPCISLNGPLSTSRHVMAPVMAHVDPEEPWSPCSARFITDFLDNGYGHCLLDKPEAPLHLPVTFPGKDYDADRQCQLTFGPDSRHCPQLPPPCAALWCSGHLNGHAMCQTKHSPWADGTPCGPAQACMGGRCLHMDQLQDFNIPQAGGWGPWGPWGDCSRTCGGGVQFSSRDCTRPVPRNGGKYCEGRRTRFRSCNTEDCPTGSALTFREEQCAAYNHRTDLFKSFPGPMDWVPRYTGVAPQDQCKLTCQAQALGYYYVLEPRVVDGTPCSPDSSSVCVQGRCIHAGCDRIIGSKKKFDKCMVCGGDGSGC

[5] = biological target: MMP13 (human, UniProt P45452 104-471, limits assumed)
[6] = biological target: T3, ADAMTS5 (human, UniProt Q9UNA0 262-622, limits assumed)
T3 sequence (looked up): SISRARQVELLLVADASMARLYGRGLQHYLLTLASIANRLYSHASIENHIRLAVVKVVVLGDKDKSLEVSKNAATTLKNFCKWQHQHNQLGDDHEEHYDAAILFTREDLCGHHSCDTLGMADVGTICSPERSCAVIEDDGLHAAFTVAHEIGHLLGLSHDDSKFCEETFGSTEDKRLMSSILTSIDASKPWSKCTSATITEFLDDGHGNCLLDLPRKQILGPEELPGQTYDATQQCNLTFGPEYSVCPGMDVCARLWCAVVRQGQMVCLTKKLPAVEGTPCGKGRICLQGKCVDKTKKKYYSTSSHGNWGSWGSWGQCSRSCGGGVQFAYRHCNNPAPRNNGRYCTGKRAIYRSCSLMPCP

[7] = biological target: MMP3 (human, UniProt P08254 100-477, limits assumed)
Sequence of MMP3 (P08254 100-477 limits assumed): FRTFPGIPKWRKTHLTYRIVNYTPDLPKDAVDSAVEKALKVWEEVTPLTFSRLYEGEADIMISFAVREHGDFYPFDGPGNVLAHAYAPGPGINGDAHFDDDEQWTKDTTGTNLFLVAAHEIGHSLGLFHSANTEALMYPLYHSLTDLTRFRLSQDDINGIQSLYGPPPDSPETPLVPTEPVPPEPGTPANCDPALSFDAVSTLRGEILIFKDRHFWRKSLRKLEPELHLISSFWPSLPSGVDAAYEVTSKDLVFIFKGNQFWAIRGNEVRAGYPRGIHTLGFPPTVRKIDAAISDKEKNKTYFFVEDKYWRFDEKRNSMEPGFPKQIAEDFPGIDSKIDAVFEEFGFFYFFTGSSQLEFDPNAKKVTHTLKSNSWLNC

[8] = biological target: T4, MMP2 (human, UniProt P08253 110-660, limits assumed)
T4 sequence (looked up): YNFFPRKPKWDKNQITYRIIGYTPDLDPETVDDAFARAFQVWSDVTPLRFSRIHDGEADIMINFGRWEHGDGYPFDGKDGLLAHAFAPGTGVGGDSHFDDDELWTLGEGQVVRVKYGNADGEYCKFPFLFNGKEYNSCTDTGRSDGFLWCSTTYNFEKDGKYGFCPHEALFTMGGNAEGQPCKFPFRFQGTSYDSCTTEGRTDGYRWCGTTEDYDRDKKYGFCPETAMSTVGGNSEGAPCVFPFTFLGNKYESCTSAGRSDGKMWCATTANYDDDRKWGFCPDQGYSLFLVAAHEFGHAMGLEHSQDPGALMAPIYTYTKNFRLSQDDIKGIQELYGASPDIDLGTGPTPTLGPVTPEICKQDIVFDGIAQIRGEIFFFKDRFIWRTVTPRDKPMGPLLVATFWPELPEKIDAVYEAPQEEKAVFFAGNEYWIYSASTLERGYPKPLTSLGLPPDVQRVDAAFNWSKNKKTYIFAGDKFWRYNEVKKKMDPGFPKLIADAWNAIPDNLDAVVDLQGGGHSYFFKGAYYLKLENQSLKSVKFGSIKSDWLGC

[9] = biological target: MMP12 (human, UniProt P39900 106-470, limits assumed)
Sequence of MMP12 (P39900 106-470 limits assumed): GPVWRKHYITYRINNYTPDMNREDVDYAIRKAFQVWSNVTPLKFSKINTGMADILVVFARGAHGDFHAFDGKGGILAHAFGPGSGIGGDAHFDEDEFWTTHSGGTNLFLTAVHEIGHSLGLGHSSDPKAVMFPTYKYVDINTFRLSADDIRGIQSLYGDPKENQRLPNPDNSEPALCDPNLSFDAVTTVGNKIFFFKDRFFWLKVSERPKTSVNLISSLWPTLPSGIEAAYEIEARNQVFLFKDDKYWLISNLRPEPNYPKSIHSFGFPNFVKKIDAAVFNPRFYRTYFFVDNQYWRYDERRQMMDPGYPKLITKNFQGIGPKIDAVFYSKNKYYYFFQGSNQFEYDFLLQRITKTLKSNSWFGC

[10] = biological target: T5, Cathepsin G (UniProt P08311 21-244)
T5 sequence (looked up): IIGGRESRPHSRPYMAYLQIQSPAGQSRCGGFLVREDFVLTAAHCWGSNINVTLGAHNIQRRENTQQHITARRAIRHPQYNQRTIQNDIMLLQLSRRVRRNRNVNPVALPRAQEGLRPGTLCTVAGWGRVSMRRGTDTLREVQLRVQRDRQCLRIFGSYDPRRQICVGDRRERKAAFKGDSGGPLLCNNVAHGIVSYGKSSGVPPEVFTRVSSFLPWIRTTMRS

[11] = biological target: bovine trypsin (bovine, UniProt P00760 24-246)
Sequence of bovine trypsin (P00760 24-246): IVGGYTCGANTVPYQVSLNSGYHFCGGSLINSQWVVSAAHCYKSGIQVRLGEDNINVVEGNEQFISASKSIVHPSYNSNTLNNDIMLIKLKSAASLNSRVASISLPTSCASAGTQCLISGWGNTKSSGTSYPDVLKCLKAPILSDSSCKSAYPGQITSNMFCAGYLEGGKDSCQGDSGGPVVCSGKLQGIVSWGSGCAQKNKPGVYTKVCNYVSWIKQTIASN

[12] = biological target: chymotrypsin
[13] = biological target: Elastase

Row | Binder | Protease Inhibition (% of WT) [1] | Protease Inhibition (% of WT) [2] | Protease Inhibition (% of WT) [3] | Protease Inhibition (% of WT) [4] | Protease Inhibition (% of WT) [5] | Protease Inhibition (% of WT) [6] | Protease Inhibition (% of WT) [7] | Protease Inhibition (% of WT) [8] | Protease Inhibition (% of WT) [9] | Protease Inhibition (% of WT) [10] | Protease Inhibition (% of WT) [11] | Protease Inhibition (% of WT) [12] | Protease Inhibition (% of WT) [13]
1 | B1 | 161 % of WT | 500 % of WT | 388 % of WT | 86 % of WT | 117 % of WT | 185 % of WT | 100 % of WT | 67 % of WT | 136 % of WT | 437 % of WT | 20 % of WT | 10 % of WT | 300 % of WT
2 | B2 | 210 % of WT | 500 % of WT | 327 % of WT | 82 % of WT | 131 % of WT | 205 % of WT | 130 % of WT | 118 % of WT | 170 % of WT | 324 % of WT | 84 % of WT | 25 % of WT | 102 % of WT
